Laboratory results from patent US20190225669A1 (ACCELERON PHARMA, published 2019).

How the values were obtained:
Test in all cases: Biacore SPR
BMP9 = molecular target: T1, BMP9 (UniProt Q9UK05 320-429)
T1 construct: also called GDF2
T1 sequence (looked up): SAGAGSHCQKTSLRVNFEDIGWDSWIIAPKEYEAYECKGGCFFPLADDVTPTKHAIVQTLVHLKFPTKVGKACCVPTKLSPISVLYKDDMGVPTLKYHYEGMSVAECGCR
Procedure: (§1) Ligands were injected and allowed to flow over the captured receptor protein.

activin B = molecular target: T2, activin B (UniProt P09529 293-407)
T2 sequence (looked up): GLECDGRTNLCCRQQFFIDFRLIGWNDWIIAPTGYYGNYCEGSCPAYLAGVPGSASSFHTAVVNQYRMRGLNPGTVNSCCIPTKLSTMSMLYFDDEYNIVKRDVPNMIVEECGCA
Procedure: as §1

activin A = molecular target: T3, activin A (UniProt P08476 311-426)
T3 sequence (looked up): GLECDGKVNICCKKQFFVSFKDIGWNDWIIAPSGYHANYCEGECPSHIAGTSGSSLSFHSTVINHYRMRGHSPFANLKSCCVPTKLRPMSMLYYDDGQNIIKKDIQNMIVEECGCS
Procedure: as §1

BMP5 = molecular target: T4, BMP5 (UniProt P22003 317-454, limits assumed)
T4 sequence (looked up): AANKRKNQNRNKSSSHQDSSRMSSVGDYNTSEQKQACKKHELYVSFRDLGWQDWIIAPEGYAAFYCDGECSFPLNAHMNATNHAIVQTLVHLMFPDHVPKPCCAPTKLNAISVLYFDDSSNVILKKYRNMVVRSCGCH
Procedure: as §1

GDF11 = molecular target: T5, GDF11 (UniProt O95390 299-407)
T5 construct: also called BMP11
T5 sequence (looked up): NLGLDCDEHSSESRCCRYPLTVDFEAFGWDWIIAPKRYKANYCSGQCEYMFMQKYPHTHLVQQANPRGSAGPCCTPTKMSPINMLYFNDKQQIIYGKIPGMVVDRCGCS
Procedure: as §1

GDF3 = molecular target: T6, GDF3 (UniProt Q9NR23 251-364)
T6 sequence (looked up): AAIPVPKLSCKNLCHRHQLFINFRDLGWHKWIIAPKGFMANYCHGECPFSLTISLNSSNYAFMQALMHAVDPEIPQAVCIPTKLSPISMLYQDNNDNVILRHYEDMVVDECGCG
Procedure: as §1

BMP6 = molecular target: T7, BMP6 (UniProt P22004 382-513, limits assumed)
T7 sequence (looked up): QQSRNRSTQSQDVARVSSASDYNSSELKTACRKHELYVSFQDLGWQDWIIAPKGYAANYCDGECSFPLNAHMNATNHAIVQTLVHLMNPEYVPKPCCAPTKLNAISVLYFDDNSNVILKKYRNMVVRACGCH
Procedure: as §1

BMP10 = molecular target: T8, BMP10 (UniProt O95393 317-424)
T8 sequence (looked up): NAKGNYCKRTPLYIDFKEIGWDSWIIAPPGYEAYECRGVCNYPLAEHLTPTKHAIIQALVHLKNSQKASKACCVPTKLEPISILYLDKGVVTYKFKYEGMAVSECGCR
Procedure: as §1

GDF8 = molecular target: T9, GDF8 (UniProt O14793 267-375)
T9 construct: also called myostatin
T9 sequence (looked up): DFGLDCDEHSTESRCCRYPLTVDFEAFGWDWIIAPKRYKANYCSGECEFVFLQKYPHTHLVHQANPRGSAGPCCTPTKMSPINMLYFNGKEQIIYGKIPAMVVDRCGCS
Procedure: as §1

Measured: binding result

B1: ALK7-Fc homodimer (Fc fusion, UniProt Q8NER5 22-113, looked up, not shown: a dimerising Fc or GST)
chain: LSPGLKCVCLLCDSSNFTCQTEGACWASVMLTNGKEQVIKSCVSLPELNAQVFCHSSNNVTKTECCFTDFCNNITLHLPTASPNAPKLGPME
notes: extracellular domain
no binding: BMP9 | activin B | activin A | BMP5 | GDF11 | GDF3 | BMP6 | BMP10 | GDF8
